Measured values from patent publication US20100317054A1 (VIRGINIA TECH INTELLECTUAL PROPERTIES, published 2010).

T1: human ICAM-3-Fc chimera (human, UniProt P32942 30-485, limits assumed)
T1 construct: Bought from R&D Systems; soluble immunoadhesin; also called hICAM3-Fc; hICAM-3-Fc; not shown: human IgG Fc (detected with anti-human IgG Fc antibody)
T1 sequence (looked up): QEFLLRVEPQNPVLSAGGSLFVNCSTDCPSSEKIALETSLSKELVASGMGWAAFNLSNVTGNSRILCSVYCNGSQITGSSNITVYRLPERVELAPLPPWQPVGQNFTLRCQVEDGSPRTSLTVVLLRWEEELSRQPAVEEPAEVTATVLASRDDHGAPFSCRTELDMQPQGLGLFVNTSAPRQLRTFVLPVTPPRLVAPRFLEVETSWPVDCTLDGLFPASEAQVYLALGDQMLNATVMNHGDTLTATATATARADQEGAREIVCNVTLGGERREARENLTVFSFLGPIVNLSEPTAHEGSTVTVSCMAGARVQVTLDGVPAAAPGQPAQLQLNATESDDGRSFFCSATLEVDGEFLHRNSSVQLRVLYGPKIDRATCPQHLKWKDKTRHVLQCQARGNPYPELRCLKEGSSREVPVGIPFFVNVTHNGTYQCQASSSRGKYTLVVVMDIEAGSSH

B1: human ICAM-2-Fc chimera (Fc fusion, UniProt P13598 25-223, looked up)
chain: KVFEVHVRPKKLAVEPKGSLEVNCSTTCNQPEVGGLETSLDKILLDEQAQWKHYLVSNISHDTVLQCHFTCSGKQESMNSNVSVYQPPRQVILTLQPTLVAVGKSFTIECRVPTVEPLDSLTLFLFRGNETLHYETFGKAAPAPQEATATFNSTADREDGHRNFSCLAVLDLMSRGGNIFHKHSAPKMLEIYEPVSDSQ
notes: Bought from R&D Systems; soluble immunoadhesin; also called hICAM2-Fc; hICAM-2-Fc; not shown: human IgG Fc (detected with anti-human IgG Fc antibody)
B2: human DC-SIGN (receptor, UniProt Q9NNX6 1-404, looked up)
chain: MSDSKEPRLQQLGLLEEEQLRGLGFRQTRGYKSLAGCLGHGPLVLQLLSFTLLAGLLVQVSKVPSSISQEQSRQDAIYQNLTQLKAAVGELSEKSKLQEIYQELTQLKAAVGELPEKSKLQEIYQELTRLKAAVGELPEKSKLQEIYQELTWLKAAVGELPEKSKMQEIYQELTRLKAAVGELPEKSKQQEIYQELTRLKAAVGELPEKSKQQEIYQELTRLKAAVGELPEKSKQQEIYQELTQLKAAVERLCHPCPWEWTFFQGNCYFMSNSQRNWHDSITACKEVGAQLVVIKSAEEQNFLQLQSSRSNRFTWMGLSDLNQEGTWQWVDGSPLLPSFKQYWNRGEPNNVGEEDCAEFSGNGWNDDKCNLAKFWICKKSAASCSRDEEQFLSPAPATPNPPPA
notes: whole, on cells; Positive control cell line; also called hDC-SIGN; CD209
B3: porcine DC-SIGN (receptor)
chain: MAEICDPKEPEEKTWTGPVLVERDLGLLRRLRNSPGCLTWPLLLLLLFVSLGFFMLLVTTLVQVSRIHQSLQRERETSRRPTAQEKIQSSLDKFLQQMTWMNATLAGLCHPCPWHWEFFQGRCYLFSQTQSDWKSSLSACKDIGAQLVIINSTAEQKFLKSWYVRYNKATWIGLSDDTNEGSWQWVDNSPLQLSFWKEGEPNNHGDEDCAELHNDGWNDSKCTVENAWICEKPSSPCPML
notes: In the Western blot it stood in a cell lysate (band of about 48 kDa, probably glycosylated); also called pDC-SIGN; BHK-PDCS (BHK-21 cells stably expressing it)

Key:
[1] = target: B2; assay: flow cytometry histograms, FIGS. 8b-8e
From the text: (§1) FIGS. 8a to 8e show the binding of human ICAM-3 and ICAM-2 immunoadhesins to BHK cells stably expressing pDC-SIGN. FIG. 8a provides the detection of surface expression of pDC-SIGN protein on stable BHK cell lines. BHK-21, and unsorted or sorted BHK-PDCS cell lines were stained with anti-pDC-SIGN antibody and FITC-labeled goat anti-rabbit IgG, respectively, and analyzed by flow cytometry. Dashed open histograms represented the background staining The expression of pDC-SIGN was indicated by the cross-hatched histograms. Expression of hDC-SIGN on the surface of 3T3-HDCS cell line was also verified by staining with a hDC-SIGN monoclonal antibody (right, bottom panel). FIGS. 8b to 8e illustrate the calcium-dependent binding of human ICAM-3 and ICAM-2 immunoadhesins to BHK-PDCS and 3T3-HDCS cells. Dashed open histograms represent cells staining only with a FITC labeled anti-human IgG Fc antibody. Results are representative of three independent experiments. Data are expressed as histogram analysis of 10,000 cells.
(§2) Human ICAM-3 and ICAM-2 binding assay: Adhesion of human ICAM-3 or ICAM-2 to pDC-SIGN proteins was assessed with BHK-PDCS and BHK-21 cells by measuring detectable cells that bound the soluble immunoadhesins through FACS analysis. 3T3-HDCS cells were used as the positive control. […] Fluorescence was monitored using FACSAria (BD Biosciences, San Jose, Calif.).

[2] = target: T2, recombinant human IgG1 Fc (human, UniProt P01857-1 100-330 = IgG part); assay: flow cytometry on 3T3-HDCS cells, FITC anti-human IgG Fc detection
T2 construct: domain: Fc; Negative control for the ICAM-Fc chimeras; also called hFc
Description: (§3) Human ICAM-3 and ICAM-2 binding assay: Adhesion of human ICAM-3 or ICAM-2 to pDC-SIGN proteins was assessed with BHK-PDCS and BHK-21 cells by measuring detectable cells that bound the soluble immunoadhesins through FACS analysis. 3T3-HDCS cells were used as the positive control. Cells (1˜3×10⁵ per sample) were resuspended in 100 μL PBS containing 2% FBS and incubated for 60 min at 4° C. with 1 μg of recombinant human IgG₁ Fc (hFc), human ICAM-3-Fc (hICAM3-Fc) chimera or hICAM2-Fc chimera (R&D Systems, Minneapolis, Minn.) in the presence or absence of mannan (100 μg/mL) or ethylene glycol tetraacetic acid (EGTA, 10 mM). Cells were then washed twice and incubated for another 45 min at 4° C. with 0.5 μg of FITC-labeled anti-human IgG Fc antibody (KPL, Inc., Gaithersburg, Md.) in 100 μL PBS containing 2% FBS. Fluorescence was monitored using FACSAria (BD Biosciences, San Jose, Calif.).

[3] = target: T1, human ICAM-3-Fc chimera; assay: flow cytometry on 3T3-HDCS cells, 1 ug Fc chimera, FITC anti-human IgG Fc
From the text: as §1, §2

[4] = target: T2, recombinant human IgG1 Fc; assay: flow cytometry on BHK-PDCS cells, FITC anti-human IgG Fc detection
Description: as §3

[5] = target: T1, human ICAM-3-Fc chimera; assay: flow cytometry on BHK-PDCS cells, 1 ug Fc chimera, FITC anti-human IgG Fc
From the text: as §1, §2

[6] = target: B1; assay: as above
From the text: as §1, §2

B1: binds [1].

B2: no binding (tested: 1 ug in 100 uL) [2]; binds [3].

B3: no binding (tested: 1 ug in 100 uL) [4]; binds [5]; binds [6].
